Results: patent US20240261333A1, “NOVEL TARGETS FOR ENHANCING ANTI-TUMOR IMMUNITY” (THE BROAD INSTITUTE, INC., priority 2021, published 2024)

T1: B3GNT2 (Homo sapiens, UniProt Q9NY97)
T1 construct: The respective ORFs of candidate genes [CD274 (NM_014143), MCL1 (NM_021960), JUNB (NM_002229), and B3GNT2 (NM_006577)] were synthesized; expressed in transfected cells; host or cells: A375 melanoma cells (lentiviral ORF overexpression)
T1 sequence (Q9NY97 1-397): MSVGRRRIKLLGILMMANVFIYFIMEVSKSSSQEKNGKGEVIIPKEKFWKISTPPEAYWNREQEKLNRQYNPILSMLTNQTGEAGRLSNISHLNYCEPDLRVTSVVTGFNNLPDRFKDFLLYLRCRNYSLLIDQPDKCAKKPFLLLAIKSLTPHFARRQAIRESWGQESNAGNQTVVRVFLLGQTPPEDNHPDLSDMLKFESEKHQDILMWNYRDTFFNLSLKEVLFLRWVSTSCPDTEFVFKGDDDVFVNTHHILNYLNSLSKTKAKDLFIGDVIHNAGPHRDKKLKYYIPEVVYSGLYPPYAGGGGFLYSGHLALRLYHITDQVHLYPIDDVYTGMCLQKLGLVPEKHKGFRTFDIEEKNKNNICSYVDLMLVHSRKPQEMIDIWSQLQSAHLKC

B1: SLC25A10 (protein)
chain: MAAEARVSRWYFGGLASCGAACCTHPLDLLKVHLQTQQEVKLRMTGMALRVVRTDGILALYSGLSASLCRQMTYSLTRFAIYETVRDRVAKGSQGPLPFHEKVLLGSVSGLAGGFVGTPADLVNVRMQNDVKLPQGQRRNYAHALDGLYRVAREEGLRRLFSGATMASSRGALVTVGQLSCYDQAKQLVLSTGYLSDNIFTHFVASFIAAAGDEPPPQGGCATFLCQPLDVLKTRLMNSKGEYQGVFHCAVETAKLGPLAFYKGLVPAGIRLIPHTVLTFVFLEQLRKNFGIKVPS
B2: SFXN3 (protein)
chain: MGELPLDINIQEPRWDQSTFLGRARHFFTVTDPRNLLLSGAQLEASRNIVQNYRAGVVTPGITEDQLWRAKYVYDSAFHPDTGEKVVLIGRMSAQVPMNMTITGCMLTFYRKTPTVVFWQWVNQSFNAIVNYSNRSGDTPITVRQLGTAYVSATTGAVATALGLKSLTKHLPPLVGRFVPFAAVAAANCINIPLMRQRELQVGIPVADEAGQRLGYSVTAAKQGIFQVVISRICMAIPAMAIPPLIMDTLEKKDFLKRRPWLGAPLQVGLVGFCLVFATPLCCALFPQKSSIHISNLEPELRAQIHEQNPSVEVVYYNKGL
B3: MYO1D (protein)
chain: AEQESLEFGKADFVLMDTVSMPEFMANLRLRFEKGRIYTFIGEVVVSVNPYKLLNIYGRDTIEQYKGRELYERPPHLFAIADAAYKAMKRRSKDTCIVISGESGAGKTEASKYIMQYIAAITNPSQRAEVERVKNMLLKSNCVLEAFGNAKTNRNDNSSRFGKYMDINFDFKGDPIGGHINNYLLEKSRVIVQQPGERSFHSFYQLLQGGSEQMLRSLHLQKSLSSYNYIHVGAQLKSSINDAAEFRVVADAMKVIGFKPEEIQTVYKILAAILHLGNLKFVVDGDTPLIENGKVVSIIAELLSTKTDMVEKALLYRTVATGRDIIDKQHTEQEASYGRDAFAKAIYERLFCWIVTRINDIIEVKNYDTTIHGKNTVIGVLDIYGFEIFDNNSFEQFCINYCNEKLQQLFIQLVLKQEQEEYQREGIPWKHIDYFNNQIIVDLVEQQHKGIIAILDDACMNVGKVTDEMFLEALNSKLGKHAHFSSRKLCASDKILEFDRDFRIRHYAGDVVYSVIGFIDKNKDTLFQDFKRLMYNSSNPVLKNMWPEGKLSITEVTKRPLTAATLFKNSMIALVDNLASKEPYYVRCIKPNDKKSPQIFDDERCRHQVEYLGLLENVRVRRAGFAFRQTYEKFLHRYKMISEFTWPNHDLPSDKEAVKKLIERCGFQDDVAYGKTKIFIRTPRTLFTLEELRAQMLIRIVLFLQKVWRGTLARMRYKRTKAALTIIRYYRRYKVKSYIHEVARRFHGVKTMRDYGKHVKWPSPPKVLRRFEEALQTIFNRWRASQLIKSIPASDLPQVRAKVAAVEMLKGQRADLGLQRAWEGNYLASKPDTPQTSGTFVPVANELKRKDKYMNVLFSCHVRKVNRFSKVEDRAIFVTDRHLYKMDPTKQYKVMKTIPLYNLTGLSVSNGKDQLVVFHTKDNKDLIVCLFSKQPTHESRIGELVGVLVNHFKSEKRHLQVNVTNPVQCSLHGKKCTVSVETRLNQPQPDFTKNRSGFILSVPGN
B4: PGK1 (protein)
chain: SLSNKLTLDKLDVKGKRVVMRVDFNVPMKNNQITNNQRIKAAVPSIKFCLDNGAKSVVLMSHLGRPDGVPMPDKYSLEPVAVELKSLLGKDVLFLKDCVGPEVEKACANPAAGSVILLENLRFHVEEEGKGKDASGNKVKAEPAKIEAFRASLSKLGDVYVNDAFGTAHRAHSSMVGVNLPQKAGGFLMKKELNYFAKALESPERPFLAILGGAKVADKIQLINNMLDKVNEMIIGGGMAFTFLKVLNNMEIGTSLFDEEGAKIVKDLMSKAEKNGVKITLPVDFVTADKFDENAKTGQATVASGIPAGWMGLDCGPESSKKYAEAVTRAKQIVWNGPVGVFEWEAFARGTKALMDEVVKATSRGCITIIGGGDTATCCAKWNTEDKVSHVSTGGGASLELLEGKVLPGVDALSNI
B5: TM9SF3 (protein)
chain: DEHEHTYQDKEEVVLWMNTVGPYHNRQETYKYFSLPFCVGSKKSISHYHETLGEALQGVELEFSGLDIKFKDDVMPATYCEIDLDKEKRDAFVYAIKNHYWYQMYIDDLPIWGIVGEADENGEDYYLWTYKKLEIGFNGNRIVDVNLTSEGKVKLVPNTKIQMSYSVKWKKSDVKFEDRFDKYLDPSFFQHRIHWFSIFNSFMMVIFLVGLVSMILMRTLRKDYARYSKEEEMDDMDRDLGDEYGWKQVHGDVFRPSSHPLIFSSLIGSGCQIFAVSLIVIIVAMIEDLYTERGSMLSTAIFVYAATSPVNGYFGGSLYARQGGRRWIKQMFIGAFLIPAMVCGTAFFINFIAIYYHASRAIPFGTMVAVCCICFFVILPLNLVGTILGRNLSGQPNFPCRVNAVPRPIPEKKWFMEPAVIVCLGGILPFGSIFIEMYFIFTSFWAYKIYYVYGFMMLVLVILCIVTVCVTIVCTYFLLNAEDYRWQWTSFLSAASTAIYVYMYSFYYYFFKTKMYGLFQTSFYFGYMAVFSTALGIMCGAIGYMGTSAFVRKIYTNVKID
B6: HLA-A (protein)
MHC heavy: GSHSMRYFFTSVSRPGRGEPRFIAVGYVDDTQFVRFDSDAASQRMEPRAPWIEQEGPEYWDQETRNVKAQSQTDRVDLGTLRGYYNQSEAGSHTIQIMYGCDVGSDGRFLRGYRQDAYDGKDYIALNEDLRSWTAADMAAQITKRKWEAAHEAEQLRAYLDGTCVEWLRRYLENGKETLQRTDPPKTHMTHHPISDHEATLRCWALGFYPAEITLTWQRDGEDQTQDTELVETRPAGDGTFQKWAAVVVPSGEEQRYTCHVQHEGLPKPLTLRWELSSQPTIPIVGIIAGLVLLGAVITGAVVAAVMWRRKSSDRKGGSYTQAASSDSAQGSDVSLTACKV
B7: SLC25A22 (protein)
chain: MADKQISLPAKLINGGIAGLIGVTCVFPIDLAKTRLQNQQNGQRVYTSMSDCLIKTVRSEGYFGMYRGAAVNLTLVTPEKAIKLAANDFFRHQLSKDGQKLTLLKEMLAGCGAGTCQVIVTTPMEMLKIQLQDAGRIAAQRKILAAQGQLSAQGGAQPSVEAPAAPRPTATQLTRDLLRSRGIAGLYKGLGATLLRDVPFSVVYFPLFANLNQLGRPASEEKSPFYVSFLAGCVAGSAAAVAVNPCDVVKTRLQSLQRGVNEDTYSGILDCARKILRHEGPSAFLKGAYCRALVIAPLFGIAQVVYFLGIAESLLGLLQDPQA
B8: ACSL3 (protein)
chain: MNNHVSSKPSTMKLKHTINPILLYFIHFLISLYTILTYIPFYFFSESRQEKSNRIKAKPVNSKPDSAYRSVNSLDGLASVLYPGCDTLDKVFTYAKNKFKNKRLLGTREVLNEEDEVQPNGKIFKKVILGQYNWLSYEDVFVRAFNFGNGLQMLGQKPKTNIAIFCETRAEWMIAAQACFMYNFQLVTLYATLGGPAIVHALNETEVTNIITSKELLQTKLKDIVSLVPRLRHIITVDGKPPTWSEFPKGIIVHTMAAVEALGAKASMENQPHSKPLPSDIAVIMYTSGSTGLPKGVMISHSNIIAGITGMAERIPELGEEDVYIGYLPLAHVLELSAELVCLSHGCRIGYSSPQTLADQSSKIKKGSKGDTSMLKPTLMAAVPEIMDRIYKNVMNKVSEMSSFQRNLFILAYNYKMEQISKGRNTPLCDSFVFRKVRSLLGGNIRLLLCGGAPLSATTQRFMNICFCCPVGQGYGLTESAGAGTISEVWDYNTGRVGAPLVCCEIKLKNWEEGGYFNTDKPHPRGEILIGGQSVTMGYYKNEAKTKADFFEDENGQRWLCTGDIGEFEPDGCLKIIDRKKDLVKLQAGEYVSLGKVEAALKNLPLVDNICAYANSYHSYVIGFVVPNQKELTELARKKGLKGTWEELCNSCEMENEVLKVLSEAAISASLEKFEIPVKIRLSPEPWTPETGLVTDAFKLKRKELKTHYQADIERMYGRK
B9: TUBA1C (protein, UniProt Q9BQE3 1-449, looked up)
Tubulin alpha-1C chain: MRECISIHVGQAGVQIGNACWELYCLEHGIQPDGQMPSDKTIGGGDDSFNTFFSETGAGKHVPRAVFVDLEPTVIDEVRTGTYRQLFHPEQLITGKEDAANNYARGHYTIGKEIIDLVLDRIRKLADQCTGLQGFLVFHSFGGGTGSGFTSLLMERLSVDYGKKSKLEFSIYPAPQVSTAVVEPYNSILTTHTTLEHSDCAFMVDNEAIYDICRRNLDIERPTYTNLNRLISQIVSSITASLRFDGALNVDLTEFQTNLVPYPRIHFPLATYAPVISAEKAYHEQLTVAEITNACFEPANQMVKCDPRHGKYMACCLLYRGDVVPKDVNAAIATIKTKRTIQFVDWCPTGFKVGINYQPPTVVPGGDLAKVQRAVCMLSNTTAVAEAWARLDHKFDLMYAKRAFVHWYVGEGMEEGEFSEAREDMAALEKDYEEVGADSADGEDEGEEY

What follows are molecules tested against T1, B3GNT2 (assay: Co-IP of FLAG-tagged B3GNT2 followed by mass spectrometry). Details: Co-IP with FLAG antibody, C-terminally FLAG-tagged B3GNT2; mass spectrometry count, unit not given.
Format: cell-based
Design: C-term IgG / C-term flag: unit not given here
Procedure, shortened: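 FLAG-tagged B3GNT2 immunoprecipitated from cell lysate (HEPES, 1% Triton X-100, 150 mM NaCl) with anti-FLAG versus […], overnight at 4° C, then captured on Protein A/G magnetic beads for 4 h. Two biological replicates per condition. Peptides fractionated and analyzed by nano-LC on an Orbitrap Elite in data-dependent mode.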

| C-term flag | Molecule |
| --- | --- |
| 6 | B1 |
| 2 | B2 |
| 2 | B3 |
| 2 | B4 |
| 11 | B5 |
| 2 | B7 |
| 5 | B8 |
| 63 | B9 |

| Molecule | C-term flag |
| --- | --- |
| B6 | 4 |

Same assay, conditions: Co-IP with FLAG antibody, N-terminally FLAG-tagged B3GNT2; mass spectrometry count, unit not given

| N-term FLAG | Molecule |
| --- | --- |
| 5 | B1 |
| 0 | B2 |
| 0 | B3 |
| 0 | B4 |
| 0 | B5 |
| 0 | B7 |
| 5 | B8 |
| 76 | B9 |

| Molecule | N-term FLAG |
| --- | --- |
| B6 | 6 |

Same assay, conditions: Co-IP with IgG control antibody, C-terminally FLAG-tagged B3GNT2; mass spectrometry count, unit not given

| C-term IgG | Molecule |
| --- | --- |
| 0 | B1 |
| 0 | B2 |
| 0 | B3 |
| 0 | B4 |
| 0 | B5 |
| 0 | B7 |
| 0 | B8 |
| 14 | B9 |

| Molecule | C-term IgG |
| --- | --- |
| B6 | 0 |

Same assay, conditions: Co-IP with IgG control antibody, N-terminally FLAG-tagged B3GNT2; mass spectrometry count, unit not given

| N-term IgG | Molecule |
| --- | --- |
| 0 | B1 |
| 0 | B2 |
| 0 | B3 |
| 0 | B4 |
| 0 | B5 |
| 0 | B7 |
| 0 | B8 |
| 8 | B9 |

| Molecule | N-term IgG |
| --- | --- |
| B6 | 0 |
